Results on one molecule are retold here after article PMC5291256 (Nucleic Acids Research, 2016).

For this assay, the target named is T1, SFR1^dN202 mutant protein (mouse, UniProt Q8BP27 203-319).
T1 sequence (looked up): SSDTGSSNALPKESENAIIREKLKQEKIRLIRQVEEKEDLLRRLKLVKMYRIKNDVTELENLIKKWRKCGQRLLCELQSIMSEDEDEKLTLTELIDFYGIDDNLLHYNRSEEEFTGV
Description: AUC.

B1: mouse SWI5 (natural protein, UniProt Q8K3D3 1-89, looked up)
chain: MIDENNDVSEEALSSDIKKLKEKHDMLDKEISQLIAEGYRVIELEKHISLLHEYNDIKDVSQMLLGKLAVTRGVTTKELYPDFDLNLND
A word on the stoichiometry N: it is a count of units in the complex or per binding partner. For the molecule B1, the “stoichiometry N” value worked out at 1.
